Positions count from the first letter of the chain named. Names may count otherwise.
B1: target 1 C4U,C7G (mixed)
RNA 1: CACCCGUGCAAAAAUGCAGGGGUCUAAAACUGAGCGGAUAACCUCUCUAUGG
RNA 2: GGGAAUGGAUCCACAUCUACGAAUUCGUACCAUAGAGAGGUUAUGCGUUCACCGAGAUCGGAAGAGCACACGU
B2: target 1 A9U,G17A (mixed)
RNA 1: B1 RNA 1
RNA 2: B1 RNA 2 with G35A, A43U, G45C, U48C
B3: target 1 C4G,C7A (mixed)
RNA 1: B1 RNA 1
RNA 2: B1 RNA 2 with G45A, U48G
B4: target 1 U11C,A14C (mixed)
RNA 1: B1 RNA 1
RNA 2: B1 RNA 2 with A38C, U41C, G45C, U48C
B5: target 1 insC 3' of 22,insU 3' of 21 (mixed)
RNA 1: B1 RNA 1
RNA 2: GGGAAUGGAUCCACAUCUACGAAUUCGUACCCUAUAGAGAGGUUAUCCGCUCACCGAGAUCGGAAGAGCACACGU
B6: target 1 U3A,U19G (mixed)
RNA 1: B1 RNA 1
RNA 2: B1 RNA 2 with U33G, G45C, U48C, U49A
B7: target 1 insU 3' of 17,insC 3' of 10 (mixed)
RNA 1: B1 RNA 1
RNA 2: B5 RNA 2 with C32A, U35G, A36U, G37A, A38G, G39A, A40G, G42U, U44C
B8: target 1 G13A,G15C (mixed)
RNA 1: B1 RNA 1
RNA 2: B1 RNA 2 with G37C, G39A, G45C, U48C
B9: target 1 insG 3' of 16,insU 3' of 5 (mixed)
RNA 1: B1 RNA 1
RNA 2: GGGAAUGGAUCCACAUCUACGAAUUCGUACCAUAGAGGAGGUUAUCCGUCUCACCGAGAUCGGAAGAGCACACGU
B10: target 1 G15A,G17A (mixed)
RNA 1: B1 RNA 1
RNA 2: B1 RNA 2 with G35A, G37A, G45C, U48C
B11: target 1 insU 3' of 20,insU 3' of 4 (mixed)
RNA 1: B1 RNA 1
RNA 2: B9 RNA 2 with A34U, G35A, A36G, G37A, U49C, C50U
B12: target 1 C4G,C22G (mixed)
RNA 1: B1 RNA 1
RNA 2: B1 RNA 2 with C30G, G45C, U48G
B13: target 1 A1U,C7U (mixed)
RNA 1: B1 RNA 1
RNA 2: B1 RNA 2 with G45U, U48C, A51U
B14: target 1 insA 3' of 15,insA 3' of 5 (mixed)
RNA 1: B1 RNA 1
RNA 2: B9 RNA 2 with G38A, U49A
B15: target 1 C2A,U3A (mixed)
RNA 1: B1 RNA 1
RNA 2: B1 RNA 2 with G45C, U48C, U49A, C50A
B16: target 1 insU 3' of 21,insA 3' of 19 (mixed)
RNA 1: B1 RNA 1
RNA 2: B5 RNA 2 with C32U, U33A, A34U, U35A
B17: target 1 insA 3' of 22,insG 3' of 4 (mixed)
RNA 1: B1 RNA 1
RNA 2: B9 RNA 2 with C31A, A32C, U33A, A34U, G35A, A36G, G37A, U49C, C50G
B18: target 1 insG 3' of 7,insG 3' of 4 (mixed)
RNA 1: B1 RNA 1
RNA 2: B9 RNA 2 with G38A, A39G, G41U, U43A, A44U, U45C, C46G, U49C, C50G
B19: target 1 insC 3' of 13,insC 3' of 3 (mixed)
RNA 1: B1 RNA 1
RNA 2: B9 RNA 2 with G38A, A39G, G40C, U49C, C50U, U51C
B20: target 1 insU 3' of 5,insA 3' of 2 (mixed)
RNA 1: B1 RNA 1
RNA 2: GGGAAUGGAUCCACAUCUACGAAUUCGUACCAUAGAGAGGUUAUCCGUCUCAACCGAGAUCGGAAGAGCACACGU
B21: target 1 insC 3' of 22,insG 3' of 20 (mixed)
RNA 1: B1 RNA 1
RNA 2: B5 RNA 2 with U33A, A34G
B22: target 1 C4G,A18C (mixed)
RNA 1: B1 RNA 1
RNA 2: B1 RNA 2 with A34C, G45C, U48G
B23: target 1 insC 3' of 18,insG 3' of 9 (mixed)
RNA 1: B1 RNA 1
RNA 2: B9 RNA 2 with G35C, A36G, G37A, U45G, C46U, G48C, U49G
B24: target 1 insU 3' of 20,insU 3' of 18 (mixed)
RNA 1: B1 RNA 1
RNA 2: B5 RNA 2 with C32A, A34U, U35A, A36U
B25: target 1 insC 3' of 10,insU 3' of 2 (mixed)
RNA 1: B1 RNA 1
RNA 2: B20 RNA 2 with A43C, U44A, C45U, G47C, U48G, A52U
B26: target 1 insU 3' of 15,insU 3' of 6 (mixed)
RNA 1: B1 RNA 1
RNA 2: B9 RNA 2 with G38U, G48U, U49G
B27: target 1 C6U,G15C (mixed)
RNA 1: B1 RNA 1
RNA 2: B1 RNA 2 with G37C, G45C, C46U, U48C
B28: target 1 insU 3' of 5,insC 3' of 1 (mixed)
RNA 1: B1 RNA 1
RNA 2: B20 RNA 2 with A53C
B29: target 1 insG 3' of 16,insG 3' of 6 (mixed)
RNA 1: B1 RNA 1
RNA 2: B9 RNA 2 with U49G
B30: target 1 insU 3' of 22,insG 3' of 3 (mixed)
RNA 1: B1 RNA 1
RNA 2: GGGAAUGGAUCCACAUCUACGAAUUCGUACUCAUAGAGAGGUUAUCCGCUGCACCGAGAUCGGAAGAGCACACGU

Biological target: T1, EsCas13d, nuclease-dead (Eubacterium siraeum, UniProt B0MS50, R295A;H300A;R849A;H854A)
T1 sequence: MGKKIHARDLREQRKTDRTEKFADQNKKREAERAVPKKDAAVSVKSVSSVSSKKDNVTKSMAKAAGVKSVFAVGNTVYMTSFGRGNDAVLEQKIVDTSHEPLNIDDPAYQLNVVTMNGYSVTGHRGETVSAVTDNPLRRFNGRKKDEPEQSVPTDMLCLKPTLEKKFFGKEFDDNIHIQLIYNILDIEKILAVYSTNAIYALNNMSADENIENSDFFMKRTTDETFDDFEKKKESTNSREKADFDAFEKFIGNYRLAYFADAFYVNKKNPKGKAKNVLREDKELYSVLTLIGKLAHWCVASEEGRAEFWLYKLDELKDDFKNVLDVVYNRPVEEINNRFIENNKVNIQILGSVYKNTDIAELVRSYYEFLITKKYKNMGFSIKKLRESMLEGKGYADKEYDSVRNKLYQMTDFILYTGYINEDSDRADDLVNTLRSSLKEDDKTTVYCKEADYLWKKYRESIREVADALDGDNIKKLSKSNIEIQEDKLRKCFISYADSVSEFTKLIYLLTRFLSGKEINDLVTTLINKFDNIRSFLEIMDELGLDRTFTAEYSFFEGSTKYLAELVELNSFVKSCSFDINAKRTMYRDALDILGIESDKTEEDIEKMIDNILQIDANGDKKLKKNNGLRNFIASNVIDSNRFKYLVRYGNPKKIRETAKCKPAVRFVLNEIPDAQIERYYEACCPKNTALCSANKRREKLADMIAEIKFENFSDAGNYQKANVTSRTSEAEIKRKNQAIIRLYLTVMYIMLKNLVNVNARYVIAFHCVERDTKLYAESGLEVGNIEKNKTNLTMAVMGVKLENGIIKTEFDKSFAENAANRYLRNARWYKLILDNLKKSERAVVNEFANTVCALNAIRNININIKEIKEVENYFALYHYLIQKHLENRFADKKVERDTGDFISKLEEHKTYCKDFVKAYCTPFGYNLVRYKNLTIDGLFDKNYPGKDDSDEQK
Experiment: crRNA (strand 1, pre-loaded); Mg2+; 40 mM Tris-HCl pH 7.5, 150 mM NaCl, 6 mM MgCl2, 1 mM DTT, 0.1% Tween-20, 0.2 mg/ml BSA; 25 C; 10 min per concentration, then washed
Conditions: tags: His6-TwinStrep-SUMO cleaved; N-terminal SNAP kept (SNAP-Surface 488); label: 3' end held by stalled T7 RNA polymerase

| Binder | Kd [nM] |
| --- | --- |
| B1 | 10.4 ± 0.4 |
| B2 | 41 ± 5 |
| B3 | 7.1 ± 0.4 |
| B4 | 86 ± 22 |
| B5 | 17.1 ± 1 |
| B6 | 50 ± 5 |
| B7 | ~50 |
| B8 | 36 ± 9 |
| B9 | 15.5 ± 1.4 |
| B10 | 80 ± 15 |
| B11 | 10.6 ± 1.2 |
| B12 | 16.1 ± 2.3 |
| B13 | 9.1 ± 1.3 |
| B14 | 15.9 ± 2 |
| B15 | 10 ± 0.8 |
| B16 | 55 ± 10 |
| B17 | 9.6 ± 0.6 |
| B18 | 6.23 ± 0.3 |
| B19 | 13.8 ± 0.7 |
| B20 | 11 ± 0.5 |
| B21 | 23.2 ± 2.3 |
| B22 | 44 ± 7 |
| B23 | 59 ± 11 |
| B24 | 33 ± 5 |
| B25 | 23.9 ± 2.3 |
| B26 | 35.6 ± 3.2 |
| B27 | 62 ± 7 |
| B28 | 21.6 ± 2.4 |
| B29 | 24.3 ± 1.9 |
| B30 | 25.3 ± 1.7 |

Reference: article PMC10786891, “Massively parallel profiling of RNA-targeting CRISPR-Cas13d”
